Results from patent publication US7407939B2, “Protein kinase inhibitors comprising ATP mimetics conjugated to peptides or peptidomimetics” (CureGenics Ltd., priority 2001, dated 2008).

Test system: PC-3 cells
Test: ssDNA apoptosis ELISA (induction of apoptosis in prostate cancer cells)
Type: cell-based
Conditions: 50 μM, optical density of treated divided by untreated cells
Method: Cells were assayed for Apoptosis using the ssDNA Apoptosis ELISA kit (Chemicon International Inc.). Cells were seeded in 96-well plates (5000 cells/well) and treated with different concentrations of the inhibitors. At different time point, plates were centrifuges at 200 g for 5 min, medium was removed and the cells were fixed with 80% methanol in PBS for 30 min at room temperature. Plates were dried by floating in a waterbath at 37° C. for 20 minutes. 50 μl of Formamide was added to each well and incubate at room temperature for 10 min. Plates were heated to 75° C. in a circulating waterbath for 10 min, cooled in refrigerator for 5 min, and then formamide was removed. […] Plates were monitored for colour development by ABTS using microplate reader at 405 nm.
DNA in apoptotic cells is sensitive to denaturation by formamide in contrast to necrotic cells. […] The specific denaturation was detected with monoclonal antibody to single stranded DNA. Using ssDNA Apoptosis ELISA kit (Chemicon International, Inc.) chimeric compounds were analyzed for their potential to induce apoptosis in PC-3 cells compared to TRAIL (TNF-related apoptosis-inducing ligand), a known apoptotic agent (R&D Systems, Inc.). Results are presented in values of apoptotic index which is calculated by dividing the optical density of treated and untreated cells.

B1: TRAIL: TNF-related apoptosis-inducing ligand, a known apoptotic agent (R&D Systems, Inc.) (protein, UniProt P50591 1-281, looked up)
Tumor necrosis factor ligand …: MAMMEVQGGPSLGQTCVLIVIFTVLLQSLCVAVTYVYFTNELKQMQDKYSKSGIACFLKEDDSYWDPNDEESMNSPCWQVKWQLRQLVRKMILRTSEETISTVQEKQQNISPLVRERGPQRVAAHITGTRGRSNTLSSPNSKNEKALGRKINSWESSRSGHSFLSNLHLRNGELVIHEKGFYYIYSQTYFRFQEEIKENTKNDKQMVQYIYKYTSYPDPILLMKSARNSCWSKDAEYGLYSIYQGGIFELKENDRIFVSVTNEHLIDMDHEASFFGAFLVG
  Apoptotic index (48 hours): 2.3
